In PMC5740674 (Proceedings of the National Academy of Sciences of the …, 2017):
Blank lines part the entries; values can stand above or below the binder they belong to. Square brackets hold non-standard residues; d marks the D form. Ends that are not written are not given here. pT = C[C@@H](OP(=O)(O)O)[C@H](N)C(=O)O

B8: Mis12–Nnf1 complex (full-length Mis12 and full-length Nnf1) (complex, S. pombe)
chain 1: MLVELLEFTPLSFIDDVINITNQLLYKGVNGVDKAFSQTRFAKKAPQEIEEGLHKFEVLFESVVDRYYDGFEVYTLRNIFSYPPELKGYMRTFGKDVDYSITTEQDAAMDQAIQEAAEKLVVKMQLRRDLRMRLSRKREKKTEIEKHLERISFLNKVPENWQVTLPETTDFLLDQLGNLQHAVKRVVEASPTVHSREVDERITYLEKGYERLSNPIDQQKDFWSHHLSKLESTANTETANNIHKLLLSSEKDVGHTDEP
chain 2: MTSRKEQLDAFLSRTLSETIAHIPLEKFAQCFPSMKKGKVIAVIHQQLIEFFEKSCKQEYANLIKERDLNKKLDMLDECIHDAEFRKLHGESEVDISNKQPQEILKAHLYSHKRELLDKLNQDLLDIDKENEGLSTQIAGEEKATEDCISRMQSLIQKLEKTVYGMNEKNLAKEAHDTLNDLLPYIQNPSSTWTNALNEQGNIER

How the values were obtained:
[1] = target: B8; assay: ITC
[2] = target: B8; assay: pull-down
[3] = target: T1, GST-Cnp3(fl), full-length Cnp3 (S. pombe, UniProt Q9USR9 1-643); assay: pull-down
T1 sequence (looked up): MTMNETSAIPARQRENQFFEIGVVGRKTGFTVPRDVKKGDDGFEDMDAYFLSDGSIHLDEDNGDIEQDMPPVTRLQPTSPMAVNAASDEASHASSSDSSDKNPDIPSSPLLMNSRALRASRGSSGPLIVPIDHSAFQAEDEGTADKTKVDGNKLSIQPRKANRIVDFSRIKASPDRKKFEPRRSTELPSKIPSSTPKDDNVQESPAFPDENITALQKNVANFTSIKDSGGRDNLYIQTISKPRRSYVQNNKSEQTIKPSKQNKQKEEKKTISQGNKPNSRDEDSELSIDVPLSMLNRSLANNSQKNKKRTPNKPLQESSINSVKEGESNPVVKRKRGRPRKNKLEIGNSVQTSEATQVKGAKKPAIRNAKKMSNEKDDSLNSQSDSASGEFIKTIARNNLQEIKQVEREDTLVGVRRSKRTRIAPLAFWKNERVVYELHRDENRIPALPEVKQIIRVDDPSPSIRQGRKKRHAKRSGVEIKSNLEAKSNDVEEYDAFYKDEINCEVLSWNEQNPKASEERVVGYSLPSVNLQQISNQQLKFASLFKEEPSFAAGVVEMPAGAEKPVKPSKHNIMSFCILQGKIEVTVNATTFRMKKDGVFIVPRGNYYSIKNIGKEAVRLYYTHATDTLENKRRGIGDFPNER

[4] = target: T2, Mis12, full length (subunit of the Mis12–Nnf1 complex) (S. pombe, UniProt Q9Y738 1-259); assay: SEC-MALS
T2 sequence (looked up): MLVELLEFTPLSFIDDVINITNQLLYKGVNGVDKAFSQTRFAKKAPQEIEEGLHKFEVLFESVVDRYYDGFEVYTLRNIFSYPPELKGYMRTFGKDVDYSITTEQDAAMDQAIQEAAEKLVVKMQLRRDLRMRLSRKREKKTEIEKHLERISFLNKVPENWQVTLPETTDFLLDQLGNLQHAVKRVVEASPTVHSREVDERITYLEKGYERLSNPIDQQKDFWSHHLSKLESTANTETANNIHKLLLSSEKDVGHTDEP

[5] = target: B8; assay: SEC-MALS
[6] = target: T3, Dsn1^DD–Nsl1 subcomplex (Dsn1 S68D S77D) (S. pombe, UniProt Q9UUB5 1-329; Q9P6M3 1-210, S68D | S77D); assay: SEC-MALS
T3 sequence (looked up) 1: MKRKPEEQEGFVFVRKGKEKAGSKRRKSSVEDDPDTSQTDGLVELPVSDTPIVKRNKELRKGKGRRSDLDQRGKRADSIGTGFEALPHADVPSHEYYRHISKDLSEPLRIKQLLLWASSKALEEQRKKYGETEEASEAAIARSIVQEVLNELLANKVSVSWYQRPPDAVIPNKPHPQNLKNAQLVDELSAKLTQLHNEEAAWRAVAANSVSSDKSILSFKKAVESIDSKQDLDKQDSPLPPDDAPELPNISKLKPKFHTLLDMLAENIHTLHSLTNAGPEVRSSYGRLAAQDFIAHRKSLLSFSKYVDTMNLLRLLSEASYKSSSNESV
T3 sequence (looked up) 2: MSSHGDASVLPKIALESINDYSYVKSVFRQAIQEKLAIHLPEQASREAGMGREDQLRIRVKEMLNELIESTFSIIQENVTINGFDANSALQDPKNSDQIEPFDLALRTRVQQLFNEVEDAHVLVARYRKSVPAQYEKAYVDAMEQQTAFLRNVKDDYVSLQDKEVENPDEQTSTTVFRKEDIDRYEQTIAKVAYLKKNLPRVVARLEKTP

- Kd [1]: 92 µM
Binder: RK[pT]GFTVPRDVKKGDDGFEDMDAYFLS (peptide, UniProt Q9USR9 26-52, looked up) [Cnp3(26–52)^pT28 peptide]

- binding result [2]: binds
B1: GST-Cnp3(1–60)^WT (domain or fragment, S. pombe, UniProt Q9USR9 1-60, looked up)
chain: MTMNETSAIPARQRENQFFEIGVVGRKTGFTVPRDVKKGDDGFEDMDAYFLSDGSIHLDE

- binding result [3]: binds
B2: Mis12–Nnf1 complex with Mis12 Y67A (complex, S. pombe)
chain 1: MLVELLEFTPLSFIDDVINITNQLLYKGVNGVDKAFSQTRFAKKAPQEIEEGLHKFEVLFESVVDRAYDGFEVYTLRNIFSYPPELKGYMRTFGKDVDYSITTEQDAAMDQAIQEAAEKLVVKMQLRRDLRMRLSRKREKKTEIEKHLERISFLNKVPENWQVTLPETTDFLLDQLGNLQHAVKRVVEASPTVHSREVDERITYLEKGYERLSNPIDQQKDFWSHHLSKLESTANTETANNIHKLLLSSEKDVGHTDEP
chain 2: MTSRKEQLDAFLSRTLSETIAHIPLEKFAQCFPSMKKGKVIAVIHQQLIEFFEKSCKQEYANLIKERDLNKKLDMLDECIHDAEFRKLHGESEVDISNKQPQEILKAHLYSHKRELLDKLNQDLLDIDKENEGLSTQIAGEEKATEDCISRMQSLIQKLEKTVYGMNEKNLAKEAHDTLNDLLPYIQNPSSTWTNALNEQGNIER

- binding result [2]: binds
B3: GST-Cnp3(1–155) (domain or fragment, S. pombe, UniProt Q9USR9 1-155, looked up)
chain: MTMNETSAIPARQRENQFFEIGVVGRKTGFTVPRDVKKGDDGFEDMDAYFLSDGSIHLDEDNGDIEQDMPPVTRLQPTSPMAVNAASDEASHASSSDSSDKNPDIPSSPLLMNSRALRASRGSSGPLIVPIDHSAFQAEDEGTADKTKVDGNKLS

- binding result [3]: binds
B4: Mis12–Nnf1 complex with Mis12 R66A (complex, S. pombe)
chain 1: MLVELLEFTPLSFIDDVINITNQLLYKGVNGVDKAFSQTRFAKKAPQEIEEGLHKFEVLFESVVDAYYDGFEVYTLRNIFSYPPELKGYMRTFGKDVDYSITTEQDAAMDQAIQEAAEKLVVKMQLRRDLRMRLSRKREKKTEIEKHLERISFLNKVPENWQVTLPETTDFLLDQLGNLQHAVKRVVEASPTVHSREVDERITYLEKGYERLSNPIDQQKDFWSHHLSKLESTANTETANNIHKLLLSSEKDVGHTDEP
chain 2: MTSRKEQLDAFLSRTLSETIAHIPLEKFAQCFPSMKKGKVIAVIHQQLIEFFEKSCKQEYANLIKERDLNKKLDMLDECIHDAEFRKLHGESEVDISNKQPQEILKAHLYSHKRELLDKLNQDLLDIDKENEGLSTQIAGEEKATEDCISRMQSLIQKLEKTVYGMNEKNLAKEAHDTLNDLLPYIQNPSSTWTNALNEQGNIER

- binding result [2]: binds
B5: GST-Cnp3(1–155)^T28A (domain or fragment, S. pombe, UniProt Q9USR9 1-155, looked up)
chain: MTMNETSAIPARQRENQFFEIGVVGRKAGFTVPRDVKKGDDGFEDMDAYFLSDGSIHLDEDNGDIEQDMPPVTRLQPTSPMAVNAASDEASHASSSDSSDKNPDIPSSPLLMNSRALRASRGSSGPLIVPIDHSAFQAEDEGTADKTKVDGNKLS

- binding result [2]: binds
Binder: RKTGFTVPRDVKKGDDGFEDMDAYF (domain or fragment, S. pombe, UniProt Q9USR9 26-50, looked up) [GST-Cnp3(26–50)]

- Kd [1]: 12.6 µM
Binder: RKTGFTVPRDVKKGDDGFEDMDAYFLS (peptide, UniProt Q9USR9 26-52, looked up) [Cnp3(26–52) peptide]

- stoichiometry N [4]: 1
B6: Nnf1, full length, untagged (subunit of the Mis12–Nnf1 complex) (natural protein, S. pombe, UniProt Q09858 1-205, looked up)
chain: MTSRKEQLDAFLSRTLSETIAHIPLEKFAQCFPSMKKGKVIAVIHQQLIEFFEKSCKQEYANLIKERDLNKKLDMLDECIHDAEFRKLHGESEVDISNKQPQEILKAHLYSHKRELLDKLNQDLLDIDKENEGLSTQIAGEEKATEDCISRMQSLIQKLEKTVYGMNEKNLAKEAHDTLNDLLPYIQNPSSTWTNALNEQGNIER

- stoichiometry N [5]: 1
B7: Dsn1–Nsl1 subcomplex (complex, S. pombe)
chain 1: MKRKPEEQEGFVFVRKGKEKAGSKRRKSSVEDDPDTSQTDGLVELPVSDTPIVKRNKELRKGKGRRSSLDQRGKRASSIGTGFEALPHADVPSHEYYRHISKDLSEPLRIKQLLLWASSKALEEQRKKYGETEEASEAAIARSIVQEVLNELLANKVSVSWYQRPPDAVIPNKPHPQNLKNAQLVDELSAKLTQLHNEEAAWRAVAANSVSSDKSILSFKKAVESIDSKQDLDKQDSPLPPDDAPELPNISKLKPKFHTLLDMLAENIHTLHSLTNAGPEVRSSYGRLAAQDFIAHRKSLLSFSKYVDTMNLLRLLSEASYKSSSNESV
chain 2: MSSHGDASVLPKIALESINDYSYVKSVFRQAIQEKLAIHLPEQASREAGMGREDQLRIRVKEMLNELIESTFSIIQENVTINGFDANSALQDPKNSDQIEPFDLALRTRVQQLFNEVEDAHVLVARYRKSVPAQYEKAYVDAMEQQTAFLRNVKDDYVSLQDKEVENPDEQTSTTVFRKEDIDRYEQTIAKVAYLKKNLPRVVARLEKTP

Binder: B8
- binding result [6]: binds
- binding result [3]: binds
